In PMC2735620:

Molecular target: Gαi/13 (N-terminally hexahistidine tagged chimera), AlF4−-activated
Experiment: flow cytometry protein interaction assay

| Ki | Binder |
| --- | --- |
| 20 nM | LARG RH/DH/PH-F1098D (domain or fragment) SPSTRIAPHIIGAEDDDFGTEHEQINGQCSCFQSIELLKSRPAHLAVFLHHVVSQFDPATLLCYLYSDLYKHTNSKETRRIFLEFHQFFLDRSAHLKVSVPDEMSADLEKRRPELIPEDLHRHYIQTMQERVHPEVQRHLEDFRQKRSMGLTLAESELTKLDAERDKDRLTLEKERTCAEQIVAKIEEVLMTAQAVEEDKSSTMQYVILMYMKHLGVKVKEPRNLEHKRGRIGFLPKIKQSMKKDKEGEEKGKRRGFPSILGPPRRPSRHDNSAIGRAMELQKARHPKHLSTPSSVSPEPQDSAKLRQSGLANEGTDAGYLPANSMSSVASGASFSQEGGKENDTGSKQVGETSAPGDTLDGTPRTLNTVFDFPPPPLDQVQEEECEVERVTEHGTPKPFRKFDSVAFGESQSEDEQFENDLETDPPNWQQLVSREVLLGLKPCEIKRQEVINELFYTERAHVRTLKVLDQVFYQRVSREGILSPSELRKIFSNLEDILQLHIGLNEQMKAVRKRNETSVIDQIGEDLLTWFSGPGEEKLKHAAATFCSNQPFALEMIKSRQKKDSRFQTFVQDAESNPLCRRLQLKDIIPTQMQRLTKYPLLLDNIAKYTEWPTEREKVKKAADHCRQILNYVNQAVKEAENKQRLEDYQRRLDTSSLKLSEYPNVEELRNLDLTKRKMIHEGPLVWKVNRDKTIDLYTLLLEDILVLLQKQDDRLVLRCHSKILASTADSKHTFSPVIKLSTVLVRQVATDNKALDVISMSDNGAQIYELVAQTVSEKTVWQDLICRMAASVKEQS |
| 540 nM | LARG RH/DH/PH-E354K (domain or fragment) SPSTRIAPHIIGAKDDDFGTEHEQINGQCSCFQSIELLKSRPAHLAVFLHHVVSQFDPATLLCYLYSDLYKHTNSKETRRIFLEFHQFFLDRSAHLKVSVPDEMSADLEKRRPELIPEDLHRHYIQTMQERVHPEVQRHLEDFRQKRSMGLTLAESELTKLDAERDKDRLTLEKERTCAEQIVAKIEEVLMTAQAVEEDKSSTMQYVILMYMKHLGVKVKEPRNLEHKRGRIGFLPKIKQSMKKDKEGEEKGKRRGFPSILGPPRRPSRHDNSAIGRAMELQKARHPKHLSTPSSVSPEPQDSAKLRQSGLANEGTDAGYLPANSMSSVASGASFSQEGGKENDTGSKQVGETSAPGDTLDGTPRTLNTVFDFPPPPLDQVQEEECEVERVTEHGTPKPFRKFDSVAFGESQSEDEQFENDLETDPPNWQQLVSREVLLGLKPCEIKRQEVINELFYTERAHVRTLKVLDQVFYQRVSREGILSPSELRKIFSNLEDILQLHIGLNEQMKAVRKRNETSVIDQIGEDLLTWFSGPGEEKLKHAAATFCSNQPFALEMIKSRQKKDSRFQTFVQDAESNPLCRRLQLKDIIPTQMQRLTKYPLLLDNIAKYTEWPTEREKVKKAADHCRQILNYVNQAVKEAENKQRLEDYQRRLDTSSLKLSEYPNVEELRNLDLTKRKMIHEGPLVWKVNRDKTIDLYTLLLEDILVLLQKQDDRLVLRCHSKILASTADSKHTFSPVIKLSTVLVRQVATDNKALFVISMSDNGAQIYELVAQTVSEKTVWQDLICRMAASVKEQS |
